Experimental data: patent US20030186334A1, “KTS-disintegrins” (Temple University - Of the Commonwealth System of Higher …, priority 2001, published 2003)

Legend:
[1] = molecular target: human α1β1 integrin (human) (UniProt P56199); experiment: inhibition of adhesion of α1K562 cells to immobilised collagen IV
[2] = molecular target: α6β1 integrin (UniProt P23229); experiment: inhibition of adhesion of α6K562 cells to laminin
α6β1 integrin, sequence (P23229 24-1130, chain 1 of 2): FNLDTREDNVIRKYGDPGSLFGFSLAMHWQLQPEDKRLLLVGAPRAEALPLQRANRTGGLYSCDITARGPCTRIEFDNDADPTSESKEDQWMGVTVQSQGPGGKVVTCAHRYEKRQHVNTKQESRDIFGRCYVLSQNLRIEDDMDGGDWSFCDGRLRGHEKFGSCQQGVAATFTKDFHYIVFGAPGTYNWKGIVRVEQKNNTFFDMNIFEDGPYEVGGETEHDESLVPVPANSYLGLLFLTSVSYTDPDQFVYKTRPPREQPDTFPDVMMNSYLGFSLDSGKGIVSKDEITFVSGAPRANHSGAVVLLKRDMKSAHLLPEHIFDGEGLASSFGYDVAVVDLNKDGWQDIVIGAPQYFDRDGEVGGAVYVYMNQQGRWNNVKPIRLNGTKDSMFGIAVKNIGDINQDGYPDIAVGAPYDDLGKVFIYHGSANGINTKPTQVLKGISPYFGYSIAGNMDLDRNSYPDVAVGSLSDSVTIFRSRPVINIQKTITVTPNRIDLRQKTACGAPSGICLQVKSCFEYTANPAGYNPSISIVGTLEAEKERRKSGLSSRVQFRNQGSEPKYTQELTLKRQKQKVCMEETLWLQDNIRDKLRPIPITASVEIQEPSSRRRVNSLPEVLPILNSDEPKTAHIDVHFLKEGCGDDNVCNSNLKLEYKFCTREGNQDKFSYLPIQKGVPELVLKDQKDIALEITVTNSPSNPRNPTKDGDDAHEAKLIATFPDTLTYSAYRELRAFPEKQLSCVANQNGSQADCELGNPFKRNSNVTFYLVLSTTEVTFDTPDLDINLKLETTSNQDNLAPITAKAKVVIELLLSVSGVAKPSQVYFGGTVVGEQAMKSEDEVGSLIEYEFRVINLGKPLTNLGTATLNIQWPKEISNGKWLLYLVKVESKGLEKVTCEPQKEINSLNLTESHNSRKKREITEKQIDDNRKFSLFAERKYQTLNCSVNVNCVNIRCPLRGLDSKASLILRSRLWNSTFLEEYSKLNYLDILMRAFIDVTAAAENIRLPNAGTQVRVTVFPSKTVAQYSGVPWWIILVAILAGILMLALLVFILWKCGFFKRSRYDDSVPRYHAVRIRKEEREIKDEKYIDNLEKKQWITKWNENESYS
α6β1 integrin, sequence (P05556 21-798, chain 2 of 2, further chain): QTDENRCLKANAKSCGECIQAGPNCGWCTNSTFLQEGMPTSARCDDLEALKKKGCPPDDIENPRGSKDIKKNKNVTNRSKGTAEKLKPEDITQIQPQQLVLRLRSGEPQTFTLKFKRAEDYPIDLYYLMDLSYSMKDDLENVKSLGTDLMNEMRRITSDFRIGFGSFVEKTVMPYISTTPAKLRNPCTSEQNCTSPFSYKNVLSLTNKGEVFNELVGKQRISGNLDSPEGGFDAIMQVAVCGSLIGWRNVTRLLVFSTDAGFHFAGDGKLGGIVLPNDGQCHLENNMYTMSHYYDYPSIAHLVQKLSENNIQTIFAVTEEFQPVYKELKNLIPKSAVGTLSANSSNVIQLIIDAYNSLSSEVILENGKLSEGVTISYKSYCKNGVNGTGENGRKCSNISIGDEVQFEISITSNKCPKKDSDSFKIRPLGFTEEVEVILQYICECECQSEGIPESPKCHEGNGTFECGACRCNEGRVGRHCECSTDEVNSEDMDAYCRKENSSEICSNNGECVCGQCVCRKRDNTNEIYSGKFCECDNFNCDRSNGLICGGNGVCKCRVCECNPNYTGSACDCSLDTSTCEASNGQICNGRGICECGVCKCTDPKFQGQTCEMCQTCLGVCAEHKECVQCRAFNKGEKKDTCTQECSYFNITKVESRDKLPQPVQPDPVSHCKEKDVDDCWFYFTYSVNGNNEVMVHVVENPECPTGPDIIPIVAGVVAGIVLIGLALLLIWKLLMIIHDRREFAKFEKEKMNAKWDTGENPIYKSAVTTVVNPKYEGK

human α1β1 integrin (human), sequence (P56199 29-1179, chain 1 of 2): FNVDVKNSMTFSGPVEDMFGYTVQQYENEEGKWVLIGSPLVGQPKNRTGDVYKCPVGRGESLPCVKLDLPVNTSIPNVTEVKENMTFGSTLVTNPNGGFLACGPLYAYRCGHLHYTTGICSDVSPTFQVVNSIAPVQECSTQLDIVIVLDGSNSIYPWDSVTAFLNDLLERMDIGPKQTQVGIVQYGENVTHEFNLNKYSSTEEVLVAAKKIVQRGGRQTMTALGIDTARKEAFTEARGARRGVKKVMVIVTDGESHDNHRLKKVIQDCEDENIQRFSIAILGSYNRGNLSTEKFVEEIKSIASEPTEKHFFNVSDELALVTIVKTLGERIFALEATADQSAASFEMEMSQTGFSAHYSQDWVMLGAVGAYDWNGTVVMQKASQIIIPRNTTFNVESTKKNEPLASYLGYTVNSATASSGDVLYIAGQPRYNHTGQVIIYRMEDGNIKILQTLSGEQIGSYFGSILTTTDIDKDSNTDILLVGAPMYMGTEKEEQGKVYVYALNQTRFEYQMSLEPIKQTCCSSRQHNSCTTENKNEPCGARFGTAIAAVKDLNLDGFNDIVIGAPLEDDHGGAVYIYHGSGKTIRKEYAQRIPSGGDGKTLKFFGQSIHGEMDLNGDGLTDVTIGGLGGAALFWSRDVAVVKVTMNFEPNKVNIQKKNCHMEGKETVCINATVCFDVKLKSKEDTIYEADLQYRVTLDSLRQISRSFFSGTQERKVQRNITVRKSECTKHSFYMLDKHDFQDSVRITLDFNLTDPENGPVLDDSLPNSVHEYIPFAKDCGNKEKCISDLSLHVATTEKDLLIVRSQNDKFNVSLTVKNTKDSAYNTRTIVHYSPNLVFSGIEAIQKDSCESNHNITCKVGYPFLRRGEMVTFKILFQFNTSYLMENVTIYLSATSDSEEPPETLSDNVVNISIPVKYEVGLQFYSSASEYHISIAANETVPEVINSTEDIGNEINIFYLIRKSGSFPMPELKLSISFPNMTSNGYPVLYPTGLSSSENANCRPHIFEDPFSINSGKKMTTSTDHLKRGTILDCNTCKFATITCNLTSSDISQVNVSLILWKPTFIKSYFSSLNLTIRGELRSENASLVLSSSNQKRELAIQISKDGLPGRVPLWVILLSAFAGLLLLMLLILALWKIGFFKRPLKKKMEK
human α1β1 integrin (human), sequence (P05556 21-798, chain 2 of 2, further chain): as the sequence (P05556 21-798, chain 2 of 2, further chain) above

Substance | IC50 [1] [µM] | IC50 [2] [µM]
Ethylpyridylated obtustatin (EP-obtustatin) (peptide) | 30 | 
echistatin (from UniProt P17347 131-179) (peptide) |  | > 10
eristostatin (from UniProt P0C6S4 1-49) (peptide) |  | > 10
obtustatin (peptide) |  | > 10
viperisrastatin (peptide) |  | > 10
